Experimental data: patent US20170275665

Biological target: T1, Marinomonas mediterranea (MMB-1) Cas2, purified with N-terminal 6xHis tag
T1 chain: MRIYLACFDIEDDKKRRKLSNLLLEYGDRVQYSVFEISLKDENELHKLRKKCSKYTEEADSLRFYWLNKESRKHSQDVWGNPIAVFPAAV

B1: Marinomonas mediterranea (MMB-1) RT-Cas1 fusion protein, wild type, purified with N-terminal maltose-binding protein tag (protein)
chain: MLNSPLIDAVLPLRSVVITLRWLSPSKTGFLHHAGLHAWVRFLAGSPEQFSDFIVVEPIENGHISYQAGDGYRFRITVLNGGESLLDTLFSSLKRLPESAANHPDIAGAFSDNLVLEKIEDTFEHHQVTQIEDLSVFDINALMLETAVWSRQRRFKVAFNTPARLVKPKPEDGTELKGQNRYCRDKSDLNWQLFTHRLTDTFINLFQSRTGERLQRQNWPEAQLHAGLAVWLNNSYTNKKEKKVKDASGMLAQMQIEIDDDFPADLLALLVLGQYIGMGQNRAFGMGQYQLQDAYGYCSYPRPQAAKSLLEKSLSDASLHQACQTMYPRQANFDSSDTDEEHHDAIDELLTKLYVSRERIFKREFTPSQLHSVEIEKPEGGTRLLSVPNWHDRTLQKAVTECLGNTLEHIWMKHSYGYRKGHSRLQARDQINQYIQQGYEWVLESDIESFFDSVNWLNLEQRLKLLLPNEPLVPLLMQWVSAAKQTEDEQTLARHNGLPQGAPISPILANLLLDDLDQDMIAKGHQIVRYADDFVLLFKSKAAAESALDDIITALKEHHLAINLEKTRIVEASQGFRYLGYLFVDGYAIETKREYRKEHAQLDKQLNASSLENEPSLQQEPAVQNEQSTLIGEREKLGTLLIIAGDIAMLSSEKQRLIVEQYDELHTYPWATLSSVLLVGPHHITTPALKSAMFHNVPVHFASQYGRYQGVSAGAAPSVFGADFWLLQAQYLQQETNALNISQVLIQARIEGIRAVISRREKDAPELNKIQRLDEKRLRAETLDQLRGYEGQASKQLWAFFQRILEEDWGFTGRNRRPPKDPINALLSLGYTYLYSLVDSVNRTVGLYPWQGALHQRHGYHHTLASDLMEPWRYLVEHVVLTLINRHQIHKDDFVIKENGCEMSSGARKTLLKELLVQLTKVPKGGNSLLTEMSNQSYRLALSCKMQQRFIAWSPKR
- cleavage of the CRISPR DNA substrate with ligation of a dsDNA oligonucleotide (in vitro cleavage-ligation assay, gel): products derived from cleavage of the CRISPR substrate were readily detected in the presence of RT-Cas1 and Cas2 together but not in the presence of either protein alone
